Common to all, as to assay: FRET or BRET
(In general: Bioluminescence resonance energy transfer reports proximity on the nanometre scale.)

Experiment [1] has as its target Hck (haemopoietic cell kinase) (human (endogenous in PMNs)) (UniProt P08631).
The target in experiment [2] is Gγ subunit (human (endogenous in PMNs)) (UniProt P59768).
The target of experiment [3] is β-arrestin-1 (human (endogenous in PMNs)) (UniProt P49407).
Chain of UniProt P49407 (P49407 whole entry): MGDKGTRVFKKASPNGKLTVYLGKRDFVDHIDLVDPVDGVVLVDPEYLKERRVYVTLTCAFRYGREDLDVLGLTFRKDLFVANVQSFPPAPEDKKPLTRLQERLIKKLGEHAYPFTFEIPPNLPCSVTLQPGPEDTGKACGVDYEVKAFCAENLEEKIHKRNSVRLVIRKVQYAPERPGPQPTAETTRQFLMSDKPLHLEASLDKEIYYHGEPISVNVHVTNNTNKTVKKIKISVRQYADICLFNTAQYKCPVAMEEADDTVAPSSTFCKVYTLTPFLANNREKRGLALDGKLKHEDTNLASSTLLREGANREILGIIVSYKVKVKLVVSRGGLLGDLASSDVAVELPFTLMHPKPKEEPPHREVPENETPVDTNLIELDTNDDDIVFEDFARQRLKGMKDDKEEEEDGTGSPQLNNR

Chain of UniProt P08631 (P08631 whole entry): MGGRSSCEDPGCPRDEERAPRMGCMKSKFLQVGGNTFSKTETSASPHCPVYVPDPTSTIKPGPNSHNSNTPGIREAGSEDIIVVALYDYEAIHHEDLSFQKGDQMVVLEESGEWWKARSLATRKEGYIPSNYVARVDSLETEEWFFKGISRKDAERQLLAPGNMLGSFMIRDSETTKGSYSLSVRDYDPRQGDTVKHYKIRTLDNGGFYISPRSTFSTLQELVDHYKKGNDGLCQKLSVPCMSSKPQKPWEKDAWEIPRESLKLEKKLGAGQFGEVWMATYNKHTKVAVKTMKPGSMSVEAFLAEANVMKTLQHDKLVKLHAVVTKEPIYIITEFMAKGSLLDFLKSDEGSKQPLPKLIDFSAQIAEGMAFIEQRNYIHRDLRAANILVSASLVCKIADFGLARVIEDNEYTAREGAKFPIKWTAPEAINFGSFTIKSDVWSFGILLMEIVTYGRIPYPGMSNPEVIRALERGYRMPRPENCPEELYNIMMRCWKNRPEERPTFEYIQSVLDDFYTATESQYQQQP

For the substance “Gβ subunit (from UniProt P62873 1-340) (natural protein)”, the figures for the FRET efficiency in experiment [1] and in experiment [2] were 54% and 58%, respectively.

Turning to “clathrin heavy chain (from UniProt Q00610 1-1675) (natural protein)”, in experiment [3], the FRET efficiency was found to be 38%.

Values taken from paper PMC3131183.
